Measurements published in the supplement of paper PMC12636428.

System: Saccharomyces cerevisiae
Test: transcriptional activation domain activity (GFP:mCherry ratio, weighted mean of sorted bins, harmonized to initial dataset scale) (arbitrary fluorescence ratio units); higher = stronger transcriptional activation
Settings: beta-estradiol 1 µM; induction time 4 h
How it was run: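 In diploid yeast carrying a GFP reporter, barcoded protein tiles fused to an estradiol-inducible synthetic transcription factor were integrated at the URA3 locus. Cultures diluted 1:5 into SC with 1 uM beta-estradiol were kept at 30 °C for 4 hours, then sorted by GFP:mCherry ratio into 8 bins before barcode sequencing. Tiles with under 50 reads were excluded. The activation activity reported here is the read-weighted mean of bin median fluorescence, averaged across barcodes and linearly rescaled to the initial dataset.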

Row | Sequence | transcriptional activation domain activity
1 | QVTALVRLIVRLNCELDLNLRGFVAALCIHWIKQSAGSASLKVLLYHAVFLAD | 44900
2 | QWCIYAMLAYVIGWTISFFFSHLFTCYPITVFIEPYYGNKCVKTVPMFIALLY | 67700
3 | QWIHQYIAVPSGTPRDKCHLRQFCYMGLEQWGVGFIIGLLPLLLSVSLCIFLV | 60400
4 | QWSVMTYLYLAVRYFGIFLAMICSYWGGLFYIPETVSHVMFLLMQWSYSVYFC | 78000
5 | QYETPAPKDFLDDFVSLTDFFTFFDDPVDLYDVGSFAFQQPHSMNIDFDPAML | 152000
6 | QYRYLTYSRWLVLLLYVFSWAFTVISMVLVTTNNANFVSCLLSILVCDVFYSG | 39300
7 | QYTKLFFFFFLWPLPSLSLLHLPHFSCSLFPFFPTFAPPFSLSLYLSQSFLFL | 54900
8 | QYYPGQLLSVKLDLFNTMLARVLDLSHMEILHFIVGPRVNIVGRGYPLRMGVV | 34100
9 | RAAAVRGAAQEPQPESRGTSATPARKTAKTEGEEKPAKKRRTAGGDKANKRSK | 9380
10 | RAARARATPARPRPRASASRARGACRASTRGCRRRRSSSSSSRAGARMRATSA | 58600
11 | RAAVSAPVVPTKAAVAPEEPPVKRKRGRPRLTSPRYRPKAAPAKAPAPTPKVV | 50000
12 | RAAVTLCSFFCFFFSWTYSSLFLLSFFIWTGFGRSYGVFFFFFFFFFFFFGGF | 19400
13 | RADADAAASGGHDRRRKRARSDASPSDGHASDASTARRERSSRRSSRSHPRHA | 18500
14 | RADARSTTRPDGSADESFDALEEEVEEYYIYVHYKTITQPSKALNLVALGRLQ | 52000
15 | RADHARRKSPARSRSASASSRSSSRSRSGSRGSDQANRRRRAASPGAQGDGRK | 39900
16 | RAGASPEEASAQSGGSRSKEAEESGSSPTGGEVGKSGGKNSSSSKSVEEKSKD | 29700
17 | RAGGRGREKKKEAEGPKKRRRKGAGGGDGQRARRKDKGRRRGEIARTAEGRNG | 20500
18 | RAITPMRVWMEVHDRAAFKLVWSEVFRLVSVLTDCPLRFKRLHYGGTMLGINT | 45000
19 | RAKADAILRELQDTFFPSAAFRAWLTIVTKLIPLSCAVEARRFRPGLDYTLAT | 77700
20 | RAKKDAKESTTSKDTGTGKGAGSSREGRGSRNTSSRGRGSASGRQSTRKSRAR | 29300
21 | RAKNRAKEEESAAQQKQAQHQQHQQHQQHRQGEEAGSAGRAEAAAAAAAAGAD | 26200

Row | Sequence | transcriptional activation domain activity
22 | RALLLLSYCAFLKTTGVTDGEIVQLISTSAELKFRPWSLVRGAECVNRCITAL | 47400
23 | RALPPFFSFFPFFRSCPLPLLSLPFSHPCFPLRLVSFFFFLLFCFSFFFILTC | 32900
24 | RAMYAPGFVELTLSYGTGGVTLYARYRSMIDALLKRPHATAFIFAGGYLSWLA | 52600
25 | RANMSTQKLAASASRQINAVVVSAGLMEKTVKVRIGQQKWNAHIRKHFNRTSH | 44400
26 | RAPRTSPHQHKPAPVPAAALARTSPHPRQHQHQHASRAPPAASPHPRQHQEHQ | 31300
27 | RARAHRPKRGGRGRGRGTGTNAREGGGREEGKKKNRKKKTKTKTKTKTKTKKR | 36600
28 | RARCIPSAPTRRPLTRSTSTCRRPPRTTGSCWTSSRPSSTPKTSSSAAKPAPC | 46200
29 | RARRNSDSSIIDKAAQEKEDRRRRERRREREREEKDRDGKSSSTRKVRKPQGL | 26200
30 | RASAAVPRRRDSTDSSDSEGDIRAAMAAARRKQAKVPAPRPVVENRPAPANTP | 36300
31 | RASEASVGTEGATDIPGDEKKKKRAPRKKPGEEENEAGRGKGRKRKGTNESSA | 36200
32 | RASHNASGFPNFLDTSCSSSFDDHFIFTNNLPFLNNNSINNNHSHNSSHNNNS | 56800
33 | RASTTSPTCSGTSTSARGRGAACSRGASTSGRCTRSSRRTRGSRSGTATSTTR | 33600
34 | RAVAVLRRGDFAGAGGGGGSGAGGGKRRKEKEKEEQEERRRRPAVASRAVKDL | 57500
35 | RAVDNSKWWLLGDSFETDVLTFVSLFQFVNAALIFNYGYLFRDRWYRNYLLLV | 47900
36 | RAYGCEAAFITVLQEKINHYTRCARVFYNLNRWVAVRLELLSSLFTTALAAYL | 63400
37 | RAYGLLKRYILVPATFGYRCAQNIGWCTIPPRVQSLTIFAFVILNLILCCISY | 58000
38 | RAYQQPILEYCRDAIDKESATTLSDERTVSKDDAEAKYSRVISACISLLASLL | 30600
39 | RCANARIVWGARVVGVGGQGEGEAKAWVDVEMAGEEGAKRVERREADFVVGCD | 37600
40 | RCFSFLFLGCHYDTDWGFGFCCLFVINCRFNFCIFFLSLFSSFFVLVSFFLLY | 58800
41 | RCGILLGSKNDGEGVDFVRVRGERIERGSSASIEEGIGEMGRSRPVRFGGGEE | 21500
42 | RCKHSDCQELSPFASVFDLIDHYDHTHAFIPETLVKYSYIHLYKPSVWDLFEY | 157000

Row | Sequence | transcriptional activation domain activity
43 | RCLVLFLWALDTIHFAFTSHGLYFYLVTSFGDFAVLLSPTWTILAQVYVTNLS | 50100
44 | RCMVIYRSSGFFFWAIVLLPCLMFLASFSESLFQYISSPSFTVTVRLGLGILF | 63200
45 | RCPAARLASSAPSAPPTPASASRTCPRPPRPSPRRTSSKSCSTRSSSASATPR | 48000
46 | RCQAVTVSDEVYSKLRCSSGHSGSGLLFMLIWIRIWKTLVIAYSGFSWREYLY | 88100
47 | RCSIIYAGCHCPMWMVLFVPGCLFGLSVALGTLWLVQASDMLFPHTNYILIYI | 46700
48 | RCWFILLYVMPNIAGTFGLRYVPLQNHVARLWCYYLTGPYNASFVLTLSLVIA | 37400
49 | RDAEKGKEKRRSRSKNRDEKMEHAEEATGGEPSREHKADSGKKSRRSSIKKSS | 29500
50 | RDAKERGEGKRKREERDSRRSERGEEDGKRRRESSADRDPDRKRSRRRRKDRD | 40900
51 | RDALSGDPTAPRKRSKVSRACDECRRKKIRCDASSESGIEQCSSCKRVGSKCS | 43500
52 | RDANQCLELYPDIRILLVRLLEYPELMVITPIRMAIRCGLLYFSHLGSDRPQA | 58800
53 | RDARARRTRERRRGRAERAPEEGRREERRKRGRGARGGRARGGAAGRGGRGEG | 32200
54 | RDCQWCAQLVRRTAIVAFNATNAVLNANMYVFVCIFLIAWLVVWKTWLWSVAL | 38300
55 | RDDDAEEDKEEVPKKKNRKGQEVGGEAGKRVEEEEEEEAPKRKKKKAKAAAAD | 13400
56 | RDDGDDDDGDDHDEEREDGGTRGEGRRRGEKGGREGEAARAEVHEASAEAEAG | 16300
57 | RDDGRRRNEKPQRSKNKGTSSTGSDKKKTTEKKSSSSRKTSGSQVDKKLSSKK | 37900
58 | RDEAGGGARRESKKAGARRGRTAEKRGGRGHEGRRQEGGKATKAEGGAEGEGE | 46500
59 | RDESLRTKDKSVSRSRSRSRARDEETDDRRERSRSADRESRREGRGRSATPQG | 34800
60 | RDGMRQGTHSTKGRADVRGSTRKAAPQKGRGRARMGSLRAPHIRGGGIAFGPK | 24000
61 | RDKDDRRRHRDRDDQSSRSHRHHRHRDGDSDRDGDGHRHKRSRHSKAEEAKPS | 28800
